Laboratory results from the supplement of paper PMC11196671.

Columns and labels:
[1] = terephthalic acid (TPA) released, HPLC; higher = more TPA released; extreme values may be limits of the assay; settings: 24 h
Description: (§1)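 Purified PET hydrolases, 2.5 ug enzyme on 3.5 mg amorphous PET film (aFilm) or crystalline PET powder (cryPow) in 0.5 mL of 50 mM buffer (NaCitrate pH 4.5/5.5, NaPhosphate 6.5/7.5, glycine 8.5/9.5) at 60 or 70 C with shaking for 24 h. Total aromatic product by UV-Vis (260/280 nm, blank-subtracted, normalised per mg enzyme) and individual TPA, MHET, BHET concentrations by UHPLC-DAD at 240 nm; duplicate reactions.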

[2] = MHET released, HPLC; higher = more MHET released; extreme values may be limits of the assay; settings: 24 h
Description: as §1

[3] = BHET released, HPLC; higher = more BHET released; extreme values may be limits of the assay; settings: 24 h
Description: as §1

[4] = PET hydrolysis product formed (TPA+MHET+BHET, UV-Vis) per mg enzyme (mmol/mg enzyme); higher = more PET depolymerisation activity; extreme values may be limits of the assay; settings: 2 h
Description: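 Purified PET hydrolases (His-SUMO cleaved, E. coli C41(DE3) small-scale expression), 2.5 ug enzyme on 3.5 mg amorphous PET film (aFilm) or crystalline PET powder (cryPow) in 0.5 mL of 50 mM buffer (NaCitrate pH 4.5/5.5, NaPhosphate 6.5/7.5, glycine 8.5/9.5) at 60 or 70 C with shaking for 2 h. Soluble aromatic products (TPA+MHET+BHET) were quantified by UV-Vis at 260/280 nm, blank-subtracted against the no-enzyme control, and normalised per mg enzyme; duplicate reactions.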

ADNPYQRGPDPTNASIEAATGPFAVGTQPIVGASGFGGGQIYYPTDTSQTYGAVVIVPGFISVWAQLAWLGPRLASQGFVVIGIETSTITDLPDPRGDQALAALDWATTRSPVRSRIDRTRLAAAGWSMGGGGLRRAACQRPSLKAIVGMAPWNTEKNWSCVTVPTLFFGGSSDAVASPNDHAKPFYNSITRAEKDYIELCNADHFFPTSANTTMAKYFISWLKRWVDNDTRYTQFLCPGPSTGLFAPVCASMNTCPF [CaPETaseM9]
Settings	BHET released, [3] [mM]	MHET released, [2] [mM]	PET hydrolysis product formed, [4]	terephthalic acid, [1] [mM]
PET substrate: aFilm, 60 °C, pH 4.5	0	0.00378	0	0.00338
PET substrate: aFilm, 60 °C, pH 5.5	0	0.0574	0	0.0407
PET substrate: aFilm, 60 °C, pH 6.5	0	0.106	0.00371	0.0535
PET substrate: aFilm, 60 °C, pH 7.5	0	0.299	0.0032	0.165
PET substrate: aFilm, 60 °C, pH 8.5	0	0.108	0.0152	0.0537
PET substrate: aFilm, 60 °C, pH 9.5	0	0.123	0	0.297
PET substrate: aFilm, 70 °C, pH 4.5	0	0	0	0
PET substrate: aFilm, 70 °C, pH 5.5	0	0	0	0
PET substrate: aFilm, 70 °C, pH 6.5	0	0	0	0
PET substrate: aFilm, 70 °C, pH 7.5	0	0	0	0
PET substrate: aFilm, 70 °C, pH 8.5	0	0.00345	0	0
PET substrate: aFilm, 70 °C, pH 9.5	0	0	0	0.00887
PET substrate: cryPow, 60 °C, pH 4.5	0.00607	0.03643	0.0116	0.0214
PET substrate: cryPow, 60 °C, pH 5.5	0	0.0852	0.0306	0.0432
PET substrate: cryPow, 60 °C, pH 6.5	0.00315	0.103	0.0384	0.0325
PET substrate: cryPow, 60 °C, pH 7.5	0	0.183	0.0693	0.0946
PET substrate: cryPow, 60 °C, pH 8.5	0	0.0922	0.0382	0.0338
PET substrate: cryPow, 60 °C, pH 9.5	0	0.0663	0.0436	0.336
PET substrate: cryPow, 70 °C, pH 4.5	0	0	0	0
PET substrate: cryPow, 70 °C, pH 5.5	0	0.0148	0.00828	0.0031
PET substrate: cryPow, 70 °C, pH 6.5	0	0.0346	0.0134	0.0109
PET substrate: cryPow, 70 °C, pH 7.5	0	0.0406	0.0293	0.0454
PET substrate: cryPow, 70 °C, pH 8.5	0	0.0381	0.0155	0.0207
PET substrate: cryPow, 70 °C, pH 9.5	0	0	0.0183	0.0926
